Reference: paper PMC9603430, “Folding Mechanism and Aggregation Propensity of the KH0 Domain of FMRP and Its R138Q Pathological Variant” (International Journal of Molecular Sciences, 2022)

Target: the molecule itself
Experiment: thioflavin T fluorescence; 20 μM protein pre-incubated at 70 °C for 10 min, stoichiometric ThT, 20 mM sodium phosphate pH 7.2, 100 mM NaCl; self-association into fibrillar aggregates

B1: KH0 domain of FMRP, R138Q pathological variant, res 122-205 (domain or fragment)
chain: not shown
notes: KH0 domain of human FMRP, residues 122-205, Uniprot Q06787, with the missense mutation R138Q found in FXS patients; Made by site-directed mutagenesis of the KH0 construct; the histidine tag was removed by thrombin for the fibrillation/aggregation experiments; also called KH0-R138Q; variant protein; source: E. coli BL-21 (DE3), purified (HisTrap FF, thrombin cleavage, Superdex75 size exclusion)
B1: binds.
